Source: patent US9649360B2, “Pharmaceutical composition for the treatment and/or prevention of disease involving abnormal accumulation of amyloid β protein” (SHIGA UNIVERSITY OF MEDICAL SCIENCE, priority 2012, dated 2017)

B1: ILEI: interleukin-like epithelial-mesenchymal transition inducer, secretory protein, SEQ ID NO: 1 (mature: SEQ ID NO: 2) (protein, listed as Homo sapiens)
chain: MRVAGAAKLVVAVAVFLLTFYVISQVFEIKMDASLGNLFARSALDTAARSTKPPRYKCGISKACPEKHFAFKMASGAANVVGPKICLEDNVLMSGVKNNVGRGINVALANGKTGEVLDTKYFDMWGGDVAPFIEFLKAIQDGTIVLMGTYDDGATKLNDEARRLIADLGSTSITNLGFRDNWVFCGGKGIKTKSPFEQHIKNNKDTNKYEGWPEVVEMEGCIPQKQD
B2: ILEI-His: purified recombinant ILEI protein from the pcDNA6/V5-His construct, added from outside the cells (protein, UniProt Q92520 25-227, looked up)
Protein FAM3C: QVFEIKMDASLGNLFARSALDTAARSTKPPRYKCGISKACPEKHFAFKMASGAANVVGPKICLEDNVLMSGVKNNVGRGINVALANGKTGEVLDTKYFDMWGGDVAPFIEFLKAIQDGTIVLMGTYDDGATKLNDEARRLIADLGSTSITNLGFRDNWVFCGGKGIKTKSPFEQHIKNNKDTNKYEGWPEVVEMEGCIPQKQD
modifications: V5-His tag
notes: purified recombinant ILEI protein from the pcDNA6/V5-His construct, added from outside the cells

Tests used:
γ-secretase = test: AICD production in transfected HEK293 cells treated with NEM (immunoblot); assay type: cell-based, human; settings: NEM for 60 minutes, n=3
Description: (§1) Brain homogenates were lysed in a buffer (25 mM HEPES, pH 7.5, 150 mM NaCl, 2 mM EDTA, protease inhibitor cocktail and 10% glycerol) containing 1% Nonidet P40. Immunoblotting was performed as previously described (Nishimura, M., et al. Nat Med 5, 164-169 (1999)).
HEK293 cells transfected with control, ILEI siRNA, or ILEI cDNA (respectively denoted by ILEI-k/d and ILEI-oe in the figure) were treated with N-ethyl maleimide (NEM) for 60 minutes to block degradation of AICD. The AICD production was inhibited by a treatment with DAPT, which is a γ-secretase inhibitor (D in the figure). β-Actin was used as a loading control. The graphs show quantified AICD signal intensities (n=3).

endogenous Notch-1 = test: γ-secretase cleavage of endogenous Notch-1 in mouse embryonic fibroblasts (NICD immunoblot); assay type: cell-based; settings: MEFs, EDTA 1.5 mM; DAPT 1 μM; n=3
Description: as §1
Next, γ-secretase cleavage of endogenous Notch-1 in mouse embryonic fibroblasts (MEFs) was examined (FIG. 1d). Treatment of MEF with EDTA (1.5 mM) induces cleavage of TMIC (transmembrane/intracellular Notch) and generates NEXT (Notch extracellular truncation). NEXT is further cleaved by γ-secretase to release NICD (Notch intracellular domain). The NICD production was inhibited by DAPT (1 μM). β-Actin was used as a loading control. The graphs show quantified NICD signal intensities (n=3).

ILEI-Tg mice [1] = test: Immunoblotting of brain homogenates of ILEI-Tg mice (APP-CTF, NICD); assay type: in vivo, mouse; settings: 6-week-old ILEI-Tg mice versus wild-type littermates
ILEI-Tg mice [2] = test: Aβ40 and Aβ42 in brain homogenate fractions of ILEI-Tg mice (ELISA); assay type: in vivo, mouse; settings: Tris-buffered saline-soluble and insoluble fractions, 8 months old, n=5, versus wild-type littermates
ILEI-Tg mice [3] = settings: mouse, in vivo
[4] = tested on: stable ILEI-knockdown HEK293 cells; test: Aβ secretion after adding purified ILEI-His to culture solution of stable ILEI-knockdown HEK293 cells; assay type: cell-based, human
Description: Using this cell culture solution, the measurement of secretory Aβ from the cells was performed according to ELISAs specific for human Aβ40 and Aβ42 (Wako Pure Chemical Industries).
Purified ILEI-His was added into the culture solution of stable ILEI-knockdown HEK293 cells at the indicated concentration (μg ml^−1).

Row | Molecule | AICD production (γ-secretase) | NICD production (Notch cleavage by γ-secretase) (endogenous Notch-1) | NICD levels in the brains (ILEI-Tg mice [1]) | decrease in APP-CTF levels in the brains (ILEI-Tg mice [1]) | Aβ40 level in brain homogenates (ILEI-Tg mice [2]) | Aβ42 level in brain homogenates (ILEI-Tg mice [2]) | development, fertility and gross morphology (ILEI-Tg mice [3]) | Aβ secretion ([4]; at a concentration of 7 μg ml^−1) | Aβ secretion ([4]; purified protein added to the culture solution at the indicated concentrations (μg ml^−1))
1 | C[C@H](NC(=O)Cc1cc(F)cc(F)c1)C(=O)N[C@H](C(=O)OC(C)(C)C)c1ccccc1 [DAPT, reference compound] | inhibited | inhibited |  |  |  |  |  |  | 
2 | B1 |  | does not perturb Notch cleavage | no alteration | 30% | significantly reduced | significantly reduced | normal development and fertility without any gross morphological defect |  | 
3 | B2 |  |  |  |  |  |  |  | decreased to almost the same extent as in the case of introducing siRNA-resistant ILEI cDNA | diminished Aβ secretion in a dose-dependent manner
